Data from publication PMC6423188, “HYNIC and DOMA conjugated radiolabeled bombesin analogs as receptor-targeted probes for scintigraphic detection of breast tumor” (EJNMMI Research, 2019).

Columns and labels:
[1] = physchem; type: physicochemical; details: pH 7.4
Method: Lipophilicity of the HPLC-purified radiopeptide analogs was determined through octanol/water partition coefficients, determined at pH 7.4 by measuring the distribution of the HPLC purified radiolabeled peptides in 1-octanol and PBS. Then, 50 μL HPLC purified ^99mTc-BN1/^99mTc-BN2/^99mTc-BN3/^99mTc-BN4/^99mTc-BNS with 100 μCi of radiolabeled compound in PBS was added to a to a centrifuge tube containing 1 mL n-octanol and 1 mL PBS (0.025 M, pH 7.4). The tube was vortexed at room temperature for 2 min and they are centrifuged at 5000 rpm for 5 min to ensure complete separation of layers. Further, 100 μL of each phase was transferred into a separate pre-weighed vial and measured in the well γ-counter. The ratio of octanol layer counts to aqueous layer counts was expressed as the distribution coefficient (D, the appropriate descriptor for ionizable compounds) and logD was used for determination of lipophilicity. Counts per unit weight of the sample were calculated, and logD value as calculated as follows:
log10D = log10 [(cpm in octanol – cpm in background) / (cpm in buffer – cpm in background)]

[2] = system: MDA-MB-231 tumor-bearing mice; test: In vivo biodistribution; design: species or system mouse; details: for Tumor uptake: MDA-MB-231 tumor; for Tumor uptake / Blood uptake / Heart uptake / Intestine uptake / Kidney uptake / Liver uptake / Lung uptake / Muscle uptake / Pancreas uptake / Spleen uptake / Stomach uptake / Urine + urinary bladder uptake: mean ± SD, n = 3
Method: All animal experiments were done according to the CSIR-IICB Animal Ethics Committee’s rules and regulation. Forty-eight hours before tumor cell implantation, an immunosuppressive drug (cyclosporine-A) was given intraperitoneal (i.p) at a concentration of 30 mg/kg/day. After that, MDA-MB-231 cells (5 × 10^6) 0.2 mL were implanted subcutaneously into the left flanks of the hind leg of BALB/c mice. Thereafter, the same dose of cyclosporine was given i.p. daily up to 2 weeks. Two weeks after inoculation of the tumor cells, when tumors reached ~ 0.5 cm in mean diameter, the tumor-bearing mice were used for biodistribution and imaging studies. Animals were monitored daily and their weights were recorded. Control group of mice received only 0.9 wt% saline. After cell implantation, the growth rate of the breast tumor followed a satisfactory pattern of spheroid shape and tumors are palpable within 2 to 4 weeks. MDA-MB-231 cell implanted mice tumor models were used for biodistribution and planar imaging studies of these radiolabeled new bombesin analogs.
In tissue biodistribution studies, tumor-bearing animals were divided into four groups and well hydrated for 1 h by intraperitoneal administration of saline (0.9%, 2 mL). Three animals per groups were used for biodistribution studies. After that, the radiolabeled new bombesin analogs (^99mTc-BN) were injected intravenously in each animal of each group consequently through the tail vein [24–27]. After 5, 30, 60, and 120 min intravenous administrations of radiolabeled analogs, the animals were sacrificed; blood, heart, lung, liver, kidney, stomach, intestine, spleen, pancreas, brain, muscle, and tumor were excised, weighed, and counted for radioactivity. The organ uptake was calculated as a percentage of the injected activity per gram of wet tissue (%IA/g). In order to evaluate whether binding of bombesin analogs to MDA-MB-231 cells in vivo is specific; blocking studies with ^99mTc-labeled bombesin analogs in tumor-bearing mice were carried out. Groups of three animals were injected 0.03 nmol of ^99mTc-labeled BN analogs (2 MBq) with 25 nmol of non-radiolabeled BN peptide. After 60 min and 120 min, mice were sacrificed and the organs were collected. Each organ was weighed and counted in a gamma counter along with activity standard and percentage of injected activity per gram (%IA/g) of tissue was calculated for each type of tissues. Counts were corrected for background radiation and physical decay of the radioactivity. The uptake was expressed in the percentage of injected activity per gram of each organ (%IA/g). Data were analyzed statistically by the t test, with the level of significance set at P < 0.05.

[3] = in vitro; type: in vitro ADME; details: rat
Method: An aliquot (100 μL) of ^99mTc-BN1/^99mTc-BN2/^99mTc-BN3/^99mTc-BN4/^99mTc-BNS was added to 1 mL of freshly collected rat serum in centrifuge tube. The mixture was then incubated at 37 °C for 1 h; the serum protein was precipitated by adding 1 mL trichloroacetic acid (10%, V/V). The supernatant and precipitate were separated by centrifugation at 3000 rpm for 5 min. Radioactivities of both the phases were measured separately. The above experimental procedure was repeated three times. The percentage of protein binding was determined as: Plasma protein binding % = (precipitate counts (CPM) / [precipitate counts (CPM) + plasma counts (CPM)]) × 100%.

[4] = 60 min p.i., blocked with excess non-radiolabeled BN peptide

Question: For “^99mTc-BN(7-14)NH2 [99mTc-BNS, reference compound]”, which logD [1] is on record?
Answer: − 0.42 ± 0.10

Question: And the Tumor uptake ([2]; 5 min p.i., i.v.)?
Answer: 0.45 ± 0.12 %IA/g

Question: What about the Blood uptake ([2]; 5 min p.i., i.v.) of the same substance?
Answer: 1.25 ± 0.05 %IA/g

Question: What about the Heart uptake ([2]; 5 min p.i., i.v.) of the same substance?
Answer: 1.80 ± 0.02 %IA/g

Question: And the Intestine uptake ([2]; 5 min p.i., i.v.)?
Answer: 0.84 ± 0.03 %IA/g

Question: And the Kidney uptake ([2]; 5 min p.i., i.v.)?
Answer: 2.86 ± 0.10 %IA/g

Question: And the Liver uptake ([2]; 5 min p.i., i.v.)?
Answer: 1.60 ± 0.07 %IA/g

Question: And the Lung uptake ([2]; 5 min p.i., i.v.)?
Answer: 1.35 ± 0.04 %IA/g

Question: And the Muscle uptake ([2]; 5 min p.i., i.v.)?
Answer: 0.16 ± 0.03 %IA/g

Question: What about the Pancreas uptake ([2]; 5 min p.i., i.v.) of the same substance?
Answer: 0.88 ± 0.01 %IA/g

Question: What about the Spleen uptake ([2]; 5 min p.i., i.v.) of the same substance?
Answer: 0.22 ± 0.04 %IA/g

Question: What about the Stomach uptake ([2]; 5 min p.i., i.v.) of the same substance?
Answer: 0.76 ± 0.03 %IA/g

Question: And the “Urine + urinary bladder uptake” value ([2]; 5 min p.i., i.v.)?
Answer: 0.56 ± 0.02 %IA/g

Question: And the Tumor uptake ([2]; 30 min p.i., i.v.)?
Answer: 0.95 ± 0.05 %IA/g

Question: And the Blood uptake ([2]; 30 min p.i., i.v.)?
Answer: 1.02 ± 0.03 %IA/g

Question: And the Heart uptake ([2]; 30 min p.i., i.v.)?
Answer: 1.10 ± 0.01 %IA/g

Question: What about the Intestine uptake ([2]; 30 min p.i., i.v.) of the same substance?
Answer: 0.52 ± 0.05 %IA/g

Question: What about the Kidney uptake ([2]; 30 min p.i., i.v.) of the same substance?
Answer: 3.12 ± 0.20 %IA/g

Question: And the Liver uptake ([2]; 30 min p.i., i.v.)?
Answer: 0.85 ± 0.06 %IA/g

Question: And the Lung uptake ([2]; 30 min p.i., i.v.)?
Answer: 0.84 ± 0.11 %IA/g

Question: And the Muscle uptake ([2]; 30 min p.i., i.v.)?
Answer: 0.26 ± 0.02 %IA/g

Question: And the Pancreas uptake ([2]; 30 min p.i., i.v.)?
Answer: 1.73 ± 0.10 %IA/g

Question: And the Spleen uptake ([2]; 30 min p.i., i.v.)?
Answer: 0.18 ± 0.03 %IA/g

Question: And the Stomach uptake ([2]; 30 min p.i., i.v.)?
Answer: 0.69 ± 0.05 %IA/g

Question: What about the “Urine + urinary bladder uptake” value ([2]; 30 min p.i., i.v.) of the same substance?
Answer: 1.92 ± 0.07 %IA/g

Question: And the tumor/kidney ratio ([2]; 60 min p.i.)?
Answer: 0.26

Question: And the Tumor uptake [2, 4]?
Answer: 0.68 ± 0.20 %IA/g

Question: And the Blood uptake [2, 4]?
Answer: 0.84 ± 0.01 %IA/g

Question: What about the Heart uptake [2, 4] of the same substance?
Answer: 0.77 ± 0.11 %IA/g

Question: And the Intestine uptake [2, 4]?
Answer: 0.36 ± 0.02 %IA/g

Question: And the Kidney uptake [2, 4]?
Answer: 2.88 ± 0.12 %IA/g

Question: And the Liver uptake [2, 4]?
Answer: 0.42 ± 0.04 %IA/g

Question: What about the Lung uptake [2, 4] of the same substance?
Answer: 0.70 ± 0.05 %IA/g

Question: And the Muscle uptake [2, 4]?
Answer: 0.17 ± 0.03 %IA/g

Question: What about the Pancreas uptake [2, 4] of the same substance?
Answer: 0.90 ± 0.02 %IA/g

Question: And the Spleen uptake [2, 4]?
Answer: 0.10 ± 0.03 %IA/g

Question: What about the Stomach uptake [2, 4] of the same substance?
Answer: 0.45 ± 0.01 %IA/g

Question: What about the “Urine + urinary bladder uptake” value [2, 4] of the same substance?
Answer: 2.58 ± 0.18 %IA/g

Question: What about the Tumor uptake ([2]; 60 min p.i., i.v.) of the same substance?
Answer: 0.75 ± 0.04 %IA/g

Question: And the Blood uptake ([2]; 60 min p.i., i.v.)?
Answer: 0.82 ± 0.01 %IA/g

Question: What about the Heart uptake ([2]; 60 min p.i., i.v.) of the same substance?
Answer: 0.79 ± 0.12 %IA/g

Question: What about the Intestine uptake ([2]; 60 min p.i., i.v.) of the same substance?
Answer: 0.31 ± 0.02 %IA/g

Question: And the Kidney uptake ([2]; 60 min p.i., i.v.)?
Answer: 2.82 ± 0.16 %IA/g

Question: What about the Liver uptake ([2]; 60 min p.i., i.v.) of the same substance?
Answer: 0.40 ± 0.05 %IA/g

Question: What about the Lung uptake ([2]; 60 min p.i., i.v.) of the same substance?
Answer: 0.68 ± 0.03 %IA/g

Question: What about the Muscle uptake ([2]; 60 min p.i., i.v.) of the same substance?
Answer: 0.18 ± 0.04 %IA/g

Question: And the Pancreas uptake ([2]; 60 min p.i., i.v.)?
Answer: 1.14 ± 0.05 %IA/g

Question: And the Spleen uptake ([2]; 60 min p.i., i.v.)?
Answer: 0.11 ± 0.02 %IA/g

Question: And the Stomach uptake ([2]; 60 min p.i., i.v.)?
Answer: 0.46 ± 0.04 %IA/g

Question: And the “Urine + urinary bladder uptake” value ([2]; 60 min p.i., i.v.)?
Answer: 2.54 ± 0.22 %IA/g

Question: And the Tumor uptake ([2]; 120 min p.i., i.v.)?
Answer: 0.58 ± 0.01 %IA/g

Question: What about the Blood uptake ([2]; 120 min p.i., i.v.) of the same substance?
Answer: 0.54 ± 0.01 %IA/g

Question: What about the Heart uptake ([2]; 120 min p.i., i.v.) of the same substance?
Answer: 0.50 ± 0.01 %IA/g

Question: What about the Intestine uptake ([2]; 120 min p.i., i.v.) of the same substance?
Answer: 0.22 ± 0.01 %IA/g

Question: What about the Kidney uptake ([2]; 120 min p.i., i.v.) of the same substance?
Answer: 2.40 ± 0.12 %IA/g

Question: What about the Liver uptake ([2]; 120 min p.i., i.v.) of the same substance?
Answer: 0.22 ± 0.02 %IA/g

Question: And the Lung uptake ([2]; 120 min p.i., i.v.)?
Answer: 0.33 ± 0.02 %IA/g

Question: What about the Muscle uptake ([2]; 120 min p.i., i.v.) of the same substance?
Answer: 0.11 ± 0.02 %IA/g

Question: And the Pancreas uptake ([2]; 120 min p.i., i.v.)?
Answer: 0.95 ± 0.04 %IA/g

Question: What about the Spleen uptake ([2]; 120 min p.i., i.v.) of the same substance?
Answer: 0.06 ± 0.11 %IA/g

Question: What about the Stomach uptake ([2]; 120 min p.i., i.v.) of the same substance?
Answer: 0.12 ± 0.02 %IA/g

Question: What about the “Urine + urinary bladder uptake” value ([2]; 120 min p.i., i.v.) of the same substance?
Answer: 2.85 ± 0.03 %IA/g

Question: What about the “Percentage of plasma protein binding” value [3] of the same substance?
Answer: 54%
